# Source: EP4578463A1, “ENDO-180 TARGETED ANTIBODY-DRUG CONJUGATES” (Oncomatryx Biopharma, S.L., priority 2023, dated 2025)
# T1: human Endo180-moFc DI-DIV variant region 4 (D304S, T305F, S306N) (human, UniProt Q9UBG0 31-513)
# T1 construct: not shown: murine Fc
# T1 chain: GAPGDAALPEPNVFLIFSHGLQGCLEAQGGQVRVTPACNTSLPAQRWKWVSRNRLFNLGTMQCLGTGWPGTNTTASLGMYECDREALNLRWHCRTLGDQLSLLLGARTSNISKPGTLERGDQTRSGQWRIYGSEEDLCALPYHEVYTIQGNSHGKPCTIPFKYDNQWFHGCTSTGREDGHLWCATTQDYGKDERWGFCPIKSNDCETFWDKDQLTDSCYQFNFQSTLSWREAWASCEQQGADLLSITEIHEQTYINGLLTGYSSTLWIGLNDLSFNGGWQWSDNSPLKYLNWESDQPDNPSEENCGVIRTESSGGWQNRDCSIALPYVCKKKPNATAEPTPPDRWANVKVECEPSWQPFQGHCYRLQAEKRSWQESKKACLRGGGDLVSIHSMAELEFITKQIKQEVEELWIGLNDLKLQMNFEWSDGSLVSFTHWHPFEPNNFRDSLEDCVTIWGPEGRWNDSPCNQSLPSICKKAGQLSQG
# T2: human Endo180-moFc DI-DIV variant region 1 (N233E, D234G, T237S, Q243P, D246S) (human, UniProt Q9UBG0 31-513)
# T2 construct: Domain III residues swapped to those of MRC1; not shown: murine Fc
# T2 chain: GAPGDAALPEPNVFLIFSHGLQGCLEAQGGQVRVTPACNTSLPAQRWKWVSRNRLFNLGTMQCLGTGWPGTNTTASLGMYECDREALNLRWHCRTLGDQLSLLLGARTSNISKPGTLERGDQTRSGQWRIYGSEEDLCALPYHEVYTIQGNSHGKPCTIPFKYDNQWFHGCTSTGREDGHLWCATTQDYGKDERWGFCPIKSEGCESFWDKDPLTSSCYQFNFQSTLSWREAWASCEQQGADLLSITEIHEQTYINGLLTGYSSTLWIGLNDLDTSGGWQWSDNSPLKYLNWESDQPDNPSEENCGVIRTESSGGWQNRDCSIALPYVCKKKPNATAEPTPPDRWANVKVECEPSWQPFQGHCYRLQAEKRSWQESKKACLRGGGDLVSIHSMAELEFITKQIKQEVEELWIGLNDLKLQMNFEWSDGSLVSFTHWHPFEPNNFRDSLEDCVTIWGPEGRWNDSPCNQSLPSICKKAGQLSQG
# T3: human Endo180-moFc DI-DIV variant region 2 (Q254K, T256A, S258T, E261Q) (human, UniProt Q9UBG0 31-513)
# T3 construct: not shown: murine Fc
# T3 chain: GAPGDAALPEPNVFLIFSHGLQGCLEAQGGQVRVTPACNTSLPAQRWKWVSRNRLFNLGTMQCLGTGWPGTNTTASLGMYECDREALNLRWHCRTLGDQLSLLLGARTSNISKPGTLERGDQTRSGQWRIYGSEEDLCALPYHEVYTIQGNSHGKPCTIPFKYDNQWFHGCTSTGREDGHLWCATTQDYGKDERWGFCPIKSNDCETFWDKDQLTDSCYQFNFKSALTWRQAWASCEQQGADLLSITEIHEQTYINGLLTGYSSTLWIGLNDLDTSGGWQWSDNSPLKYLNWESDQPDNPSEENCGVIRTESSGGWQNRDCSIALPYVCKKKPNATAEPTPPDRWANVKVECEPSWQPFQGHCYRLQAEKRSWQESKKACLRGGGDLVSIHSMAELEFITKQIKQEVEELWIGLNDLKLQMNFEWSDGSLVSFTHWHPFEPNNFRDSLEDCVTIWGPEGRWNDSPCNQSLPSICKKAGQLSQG
# T4: human Endo180-moFc domain I (aa 31-173) (human, UniProt Q9UBG0 31-173)
# T4 construct: also called huEndo180-moFc DI; not shown: murine Fc domain
# T4 sequence: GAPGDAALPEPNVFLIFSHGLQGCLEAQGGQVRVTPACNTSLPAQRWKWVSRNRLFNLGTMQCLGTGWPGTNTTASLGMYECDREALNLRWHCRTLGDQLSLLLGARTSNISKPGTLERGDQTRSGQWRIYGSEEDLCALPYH
# T5: human Endo180-moFc domains I-II (aa 31-232) (human, UniProt Q9UBG0 31-232)
# T5 construct: also called huEndo180-moFc DI-II; not shown: murine Fc domain
# T5 sequence: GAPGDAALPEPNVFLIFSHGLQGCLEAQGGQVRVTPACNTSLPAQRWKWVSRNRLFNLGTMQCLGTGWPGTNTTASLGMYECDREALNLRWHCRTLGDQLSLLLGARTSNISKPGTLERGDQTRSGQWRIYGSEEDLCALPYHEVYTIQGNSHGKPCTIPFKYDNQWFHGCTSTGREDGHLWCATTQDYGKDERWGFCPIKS
# T6: human Endo180-His (aa: 31-513; comprising the first four N-terminal domains) (human, UniProt Q9UBG0 31-513)
# T6 construct: In-house produced; also called huEndo; human Endo180-His molecule; not shown: His tag
# T6 sequence: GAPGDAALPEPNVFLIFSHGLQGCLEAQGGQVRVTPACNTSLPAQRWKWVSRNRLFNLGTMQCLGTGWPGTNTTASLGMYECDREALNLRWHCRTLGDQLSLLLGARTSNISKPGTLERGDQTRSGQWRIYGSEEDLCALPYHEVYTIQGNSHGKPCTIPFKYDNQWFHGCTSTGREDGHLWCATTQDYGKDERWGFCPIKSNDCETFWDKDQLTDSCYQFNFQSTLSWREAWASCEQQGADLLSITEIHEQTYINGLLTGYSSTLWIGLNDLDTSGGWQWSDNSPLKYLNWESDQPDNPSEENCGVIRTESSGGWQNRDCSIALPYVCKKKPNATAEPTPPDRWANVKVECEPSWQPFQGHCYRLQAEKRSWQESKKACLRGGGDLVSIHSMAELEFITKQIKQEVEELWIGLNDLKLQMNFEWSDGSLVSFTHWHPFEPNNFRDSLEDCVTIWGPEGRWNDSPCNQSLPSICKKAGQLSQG
# Legend:
# [1] = target: T1, human Endo180-moFc DI-DIV variant …; experiment: ELISA, 10 nM IgG on immobilized variant (3 µg/ml)
# [2] = target: T2, human Endo180-moFc DI-DIV variant …; experiment: ELISA, 10 nM IgG on immobilized variant (3 µg/ml)
# [3] = target: T3, human Endo180-moFc DI-DIV variant …; experiment: ELISA, 10 nM IgG on immobilized variant (3 µg/ml)
# [4] = target: T4, human Endo180-moFc domain I (aa 31-173); experiment: ELISA, immobilized human Endo180-moFc domains
# [5] = target: T5, human Endo180-moFc domains I-II (aa …); experiment: ELISA, immobilized human Endo180-moFc domains
# [6] = target: T6, human Endo180-His (aa: 31-513; …); experiment: ELISA, immobilized human Endo180-His
binder,measurement,setting,value
"Human IgG1 G7V with a wildtype γ1 heavy chain (antibody, V domains shown, Naked antibody, made in HEK293-6E (lab scale) or CHO (1 L scale); also called IgG G7V; OMTX007-G7V) VH: EVQLVESGGGLVKPGGSLRLSCAASGFTFSSYSMNWVRQAPGKGLEWVANIKPDGSERHSVDSVKGRFTISRDNSKNSLYLQMNSLRAEDTAVYYCARPGAGRLDYWGQGTLVTVSS VL: SSELTQDPAVSVALGQTVRITCQGDSLRSYYASWYQQKPGQAPVLVVYGKNNRPSGIPDRFSGSSSGNTASLTITGAQAEDEADYYCNSRDSSGNPWAFGGGTKVTVLG",binding result,[1],binds
same,binding result,[2],binds
same,binding result,[3],binds
same,binding result,[4],no binding (tested: titrated from 0.1 pM to 100 nM)
same,binding result,[5],no binding (tested: titrated from 0.1 pM to 100 nM)
same,EC50,[6],4.7 nM
